Test results: article PMC7758071, “Calcium depletion challenges endoplasmic reticulum proteostasis by destabilising BiP-substrate complexes” (eLife, 2020)
Several values for one entry are separate records, joined by “and”; a condition that tells them apart may be missing. Equal values may be shown once. Each block holds one binder with its values, some of them ahead of it. Ends that are not written are not given here. * marks the point of attachment. Biotin = O=C1N[C@H]2[C@H](CS[C@H]2CCCCC(=O)*)N1

Legend:
[1] = biological target: the molecule itself; assay: crystal structure; BiP^T229A-V461F (28-549) at 150 µM with equimolar FICD^L258D-H363A and 175 µM ATP (FICD excluded from the crystals); apo: 20% PEG3350, 0.1 M Bis-Tris Propane pH 7.5, 0.2 M Na3Citrate; ADP-bound: 20% PEG3350, 0.2 M K3Citrate
[2] = biological target: T1, BiP (Chinese hamster, wild type, UK173) (Chinese hamster, UniProt G3I8R9 19-654); assay: BLI; as a1, association with Mg + ATP; dissociation with Mg + Ca + ATP ([MgCl2]/[CaCl2]=3); conditions: both partners purified
T1 construct: BiP (Grp78), the ER Hsp70 chaperone, Chinese hamster (Cricetulus griseus), wild type; called full-length BiP in the results; also called Grp78; mammalian BiP; source: E. coli M15, purified (Ni-NTA)

[3] = biological target: T1, BiP (Chinese hamster, wild type, UK173); assay: BLI; as a7, but dissociation with Mg + Ca + ATP + ADP ([MgCl2]/[CaCl2]=3; [ATP]/[ADP]=2); conditions: both partners purified
[4] = biological target: T1, BiP (Chinese hamster, wild type, UK173); assay: BLI; as a1, but association with Mg + Ca + ATP ([MgCl2]/[CaCl2]=3); dissociation with Mg + ATP; conditions: both partners purified
[5] = biological target: T2, DnaK from Escherichia coli (UK2243) (Escherichia coli, UniProt P0A6Y8 1-638); assay: BLI; as a14, but dissociation with Mg + Ca + ATP + ADP; conditions: both partners purified
T2 construct: DnaK, the Hsp70 of Escherichia coli; also called bacterial DnaK; source: E. coli BL21 T7 Express lysY/Iq, purified (Ni-NTA, Ulp1 cleavage, anion exchange, second Ni-NTA); not shown: His6-Smt3, N-terminal, cleaved

[6] = biological target: T1, BiP (Chinese hamster, wild type, UK173); assay: BLI; as a1, but the non-functional H422Q J-domain (J^QPD) co-immobilised with P15; association with Mg + ATP; dissociation with Mg + ATP; conditions: both partners purified
[7] = biological target: T1, BiP (Chinese hamster, wild type, UK173); assay: BLI; streptavidin sensor with biotinylated ERdj6 J-domain (J) and biotinylated P15 co-immobilised; association: 5 µM Hsp70, 3 mM MgCl2, 1.5 mM ATP; dissociation in protein-free solution with Mg + ATP + ADP ([ATP]/[ADP]=2); 28°C; 50 mM HEPES-KOH pH 7.4, 100 mM KCl, 0.2 mM TCEP, 0.05% Triton X-100; one-phase decay fit; conditions: both partners purified
[8] = biological target: T1, BiP (Chinese hamster, wild type, UK173); assay: BLI; as a8, dissociation with Mg + Ca + ATP + ADP and Grp170 present in the dissociation step; conditions: both partners purified
[9] = biological target: T1, BiP (Chinese hamster, wild type, UK173); assay: BLI; streptavidin sensor with biotinylated ERdj6 J-domain (J) and biotinylated P15 co-immobilised; association: 5 µM Hsp70, 3 mM MgCl2, 1.5 mM ATP; dissociation in protein-free solution with Mg + ATP + ADP ([ATP]/[ADP]=2); 28°C; 50 mM HEPES-KOH pH 7.4, 100 mM KCl, 0.2 mM TCEP, 0.05% Triton X-100; one-phase decay fit; conditions: both partners purified; remark: listed apart in the source
[10] = biological target: T1, BiP (Chinese hamster, wild type, UK173); assay: BLI; as a1, association with Mg + ATP; first dissociation step with Mg + ADP, then second dissociation step (the one fitted) with Mg + ATP; conditions: both partners purified
[11] = biological target: T1, BiP (Chinese hamster, wild type, UK173); assay: BLI; streptavidin sensor with biotinylated ERdj6 J-domain (J) and biotinylated P15 co-immobilised; association: 5 µM BiP, MgCl2 + ATP; dissociation in protein-free solution with Mg + ATP; 28°C; 50 mM HEPES-KOH pH 7.4, 100 mM KCl, 0.2 mM TCEP, 0.05% Triton X-100; one-phase decay fit; conditions: both partners purified
[12] = biological target: T3, BiP from Drosophila melanogaster (UK2354) (Drosophila melanogaster, UniProt P29844 19-656); assay: BLI; as a7, but dissociation with Mg + Ca + ATP + ADP ([MgCl2]/[CaCl2]=3; [ATP]/[ADP]=2); conditions: both partners purified
T3 construct: BiP homologue of Drosophila melanogaster; the ER signal peptide is probably absent from the bacterial construct; also called dBiP; Drosophila BiP; source: E. coli BL21 T7 Express lysY/Iq, purified (Ni-NTA, Ulp1 cleavage, anion exchange); not shown: His6-Smt3, N-terminal, cleaved

[13] = biological target: T4, human cytosolic Hsp70 (HSPA1A; UK2510; natural variant E110D) (human, UniProt P0DMV8 1-641, E110D); assay: as above; conditions: both partners purified
T4 construct: human cytosolic Hsp70 (HSPA1A), natural variant E110D; source: E. coli BL21 T7 Express lysY/Iq, purified (Ni-NTA, Ulp1 cleavage, anion exchange); not shown: His6-Smt3, N-terminal, cleaved

[14] = biological target: T1, BiP (Chinese hamster, wild type, UK173); assay: as above; conditions: both partners purified; remark: listed apart in the source
[15] = biological target: T5, human Hsc70 (HSPA8; UK2511) (human, UniProt P11142 1-646); assay: as above; conditions: both partners purified
T5 construct: human cytosolic Hsc70 (HSPA8); source: E. coli BL21 T7 Express lysY/Iq, purified (Ni-NTA, Ulp1 cleavage, anion exchange); not shown: His6-Smt3, N-terminal, cleaved

[16] = biological target: T1, BiP (Chinese hamster, wild type, UK173); assay: BLI; as a1, association with Mg + ATP; dissociation (step 1) with Ca + ADP; conditions: both partners purified
[17] = biological target: T1, BiP (Chinese hamster, wild type, UK173); assay: BLI; as a1, association with Mg + ATP; dissociation with Mg + ADP; conditions: both partners purified
[18] = biological target: T3, BiP from Drosophila melanogaster …; assay: BLI; streptavidin sensor with biotinylated ERdj6 J-domain (J) and biotinylated P15 co-immobilised; association: 5 µM Hsp70, 3 mM MgCl2, 1.5 mM ATP; dissociation in protein-free solution with Mg + ATP + ADP ([ATP]/[ADP]=2); 28°C; 50 mM HEPES-KOH pH 7.4, 100 mM KCl, 0.2 mM TCEP, 0.05% Triton X-100; one-phase decay fit; conditions: both partners purified
[19] = biological target: T4, human cytosolic Hsp70 (HSPA1A; UK2510; …); assay: as above; conditions: both partners purified
[20] = biological target: T1, BiP (Chinese hamster, wild type, UK173); assay: as above; conditions: both partners purified; remark: listed apart in the source
[21] = biological target: T5, human Hsc70 (HSPA8; UK2511); assay: as above; conditions: both partners purified
[22] = biological target: T2, DnaK from Escherichia coli (UK2243); assay: BLI; streptavidin sensor with biotinylated J-domain of E. coli DnaJ (residues 1-72) and biotinylated P15 co-immobilised; association: 5 µM DnaK, 3 mM MgCl2, 1.5 mM ATP; dissociation in protein-free solution with Mg + ATP + ADP ([ATP]/[ADP]=2); 28°C; 50 mM HEPES-KOH pH 7.4, 100 mM KCl, 0.2 mM TCEP, 0.05% Triton X-100; one-phase decay fit; conditions: both partners purified
[23] = biological target: T1, BiP (Chinese hamster, wild type, UK173); assay: BLI; as a1, association with Mg + ATP; first dissociation step with Ca + ADP, then second dissociation step (the one fitted) with Mg + ATP; conditions: both partners purified
[24] = biological target: T1, BiP (Chinese hamster, wild type, UK173); assay: BLI; as a7, dissociation with Mg + ATP + ADP and Grp170 present in the dissociation step; conditions: both partners purified
[25] = biological target: T1, BiP (Chinese hamster, wild type, UK173); assay: BLI; as a1, association with Mg + ATP; dissociation with Ca + ATP (Ca2+ the only divalent cation); conditions: both partners purified
[26] = biological target: T1, BiP (Chinese hamster, wild type, UK173); assay: BLI; as a1, but the non-functional H422Q J-domain (J^QPD) co-immobilised with P15; association with Mg + ATP; dissociation with Mg + ATP; conditions: both partners purified; remark: listed apart in the source
[27] = biological target: T1, BiP (Chinese hamster, wild type, UK173); assay: BLI; as a7, but dissociation with Mg + Ca + ATP + ADP ([MgCl2]/[CaCl2]=3; [ATP]/[ADP]=2); conditions: both partners purified; remark: listed apart in the source

T3 sequence (P29844 19-656): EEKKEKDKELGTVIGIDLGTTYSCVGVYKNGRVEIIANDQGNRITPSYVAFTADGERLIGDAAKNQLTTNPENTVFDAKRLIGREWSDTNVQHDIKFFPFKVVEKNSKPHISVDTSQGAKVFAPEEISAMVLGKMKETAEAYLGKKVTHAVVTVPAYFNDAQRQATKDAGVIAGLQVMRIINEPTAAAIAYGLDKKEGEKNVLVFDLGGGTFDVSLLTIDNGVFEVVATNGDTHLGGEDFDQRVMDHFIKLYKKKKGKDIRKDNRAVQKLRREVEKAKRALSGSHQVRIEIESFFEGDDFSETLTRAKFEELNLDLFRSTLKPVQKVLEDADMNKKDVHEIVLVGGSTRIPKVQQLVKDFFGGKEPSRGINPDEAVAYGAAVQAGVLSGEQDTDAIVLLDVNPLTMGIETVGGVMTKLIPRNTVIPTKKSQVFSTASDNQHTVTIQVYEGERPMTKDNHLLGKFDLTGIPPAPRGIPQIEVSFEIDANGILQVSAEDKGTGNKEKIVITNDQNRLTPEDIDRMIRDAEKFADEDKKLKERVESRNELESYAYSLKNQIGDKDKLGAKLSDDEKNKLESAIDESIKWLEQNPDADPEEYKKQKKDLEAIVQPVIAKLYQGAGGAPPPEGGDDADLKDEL
T1 sequence (G3I8R9 19-654): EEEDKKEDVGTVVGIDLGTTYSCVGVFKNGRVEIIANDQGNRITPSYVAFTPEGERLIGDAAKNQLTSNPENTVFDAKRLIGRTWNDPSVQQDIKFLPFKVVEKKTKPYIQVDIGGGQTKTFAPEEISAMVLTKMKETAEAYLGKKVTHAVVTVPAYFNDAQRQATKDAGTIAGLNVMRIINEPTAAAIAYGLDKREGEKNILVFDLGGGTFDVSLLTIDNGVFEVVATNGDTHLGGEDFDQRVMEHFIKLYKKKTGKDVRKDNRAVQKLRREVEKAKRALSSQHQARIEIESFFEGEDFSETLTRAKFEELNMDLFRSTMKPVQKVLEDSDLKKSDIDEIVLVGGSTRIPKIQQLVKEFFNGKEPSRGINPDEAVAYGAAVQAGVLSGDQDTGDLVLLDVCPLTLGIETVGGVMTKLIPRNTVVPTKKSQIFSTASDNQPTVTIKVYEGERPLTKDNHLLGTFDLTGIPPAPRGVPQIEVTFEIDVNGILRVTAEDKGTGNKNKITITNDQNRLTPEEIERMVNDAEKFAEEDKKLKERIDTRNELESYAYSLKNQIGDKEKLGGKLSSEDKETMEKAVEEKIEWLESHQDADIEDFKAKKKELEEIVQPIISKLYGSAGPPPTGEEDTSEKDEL
T5 sequence (P11142 whole entry): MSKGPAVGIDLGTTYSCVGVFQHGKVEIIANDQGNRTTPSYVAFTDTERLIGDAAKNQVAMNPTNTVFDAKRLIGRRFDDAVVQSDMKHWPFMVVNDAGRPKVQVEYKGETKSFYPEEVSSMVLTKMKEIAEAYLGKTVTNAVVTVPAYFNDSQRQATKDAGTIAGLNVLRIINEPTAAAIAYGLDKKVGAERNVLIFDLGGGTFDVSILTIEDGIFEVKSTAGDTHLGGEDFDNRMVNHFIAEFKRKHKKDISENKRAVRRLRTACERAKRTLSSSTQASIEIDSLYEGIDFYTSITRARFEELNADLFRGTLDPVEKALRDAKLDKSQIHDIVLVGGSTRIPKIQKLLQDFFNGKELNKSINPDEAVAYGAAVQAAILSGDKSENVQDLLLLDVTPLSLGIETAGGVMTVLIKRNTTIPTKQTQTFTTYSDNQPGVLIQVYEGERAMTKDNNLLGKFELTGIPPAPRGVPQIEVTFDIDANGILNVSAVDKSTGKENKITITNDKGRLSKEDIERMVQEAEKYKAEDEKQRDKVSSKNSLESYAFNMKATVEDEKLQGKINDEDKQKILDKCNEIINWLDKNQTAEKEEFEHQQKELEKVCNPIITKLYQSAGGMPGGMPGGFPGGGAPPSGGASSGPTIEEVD
T4 sequence (P0DMV8 whole entry E110D): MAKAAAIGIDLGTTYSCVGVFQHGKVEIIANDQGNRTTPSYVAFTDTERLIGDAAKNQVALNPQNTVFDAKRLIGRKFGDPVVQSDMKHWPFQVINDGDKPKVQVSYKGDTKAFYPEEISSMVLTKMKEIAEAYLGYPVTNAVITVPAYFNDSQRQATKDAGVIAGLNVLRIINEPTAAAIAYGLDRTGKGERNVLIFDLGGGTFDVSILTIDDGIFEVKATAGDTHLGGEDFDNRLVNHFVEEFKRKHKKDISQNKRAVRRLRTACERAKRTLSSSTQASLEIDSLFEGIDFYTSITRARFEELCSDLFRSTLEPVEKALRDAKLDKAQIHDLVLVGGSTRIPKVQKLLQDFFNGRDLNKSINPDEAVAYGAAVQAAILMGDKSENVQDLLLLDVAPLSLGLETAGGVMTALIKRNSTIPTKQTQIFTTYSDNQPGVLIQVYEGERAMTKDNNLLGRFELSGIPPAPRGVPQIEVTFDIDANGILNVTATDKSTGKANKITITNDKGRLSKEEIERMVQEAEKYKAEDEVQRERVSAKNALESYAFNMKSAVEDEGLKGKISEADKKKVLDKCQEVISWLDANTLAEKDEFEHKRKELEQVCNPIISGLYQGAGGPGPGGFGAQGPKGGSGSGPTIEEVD
T2 sequence (P0A6Y8 whole entry): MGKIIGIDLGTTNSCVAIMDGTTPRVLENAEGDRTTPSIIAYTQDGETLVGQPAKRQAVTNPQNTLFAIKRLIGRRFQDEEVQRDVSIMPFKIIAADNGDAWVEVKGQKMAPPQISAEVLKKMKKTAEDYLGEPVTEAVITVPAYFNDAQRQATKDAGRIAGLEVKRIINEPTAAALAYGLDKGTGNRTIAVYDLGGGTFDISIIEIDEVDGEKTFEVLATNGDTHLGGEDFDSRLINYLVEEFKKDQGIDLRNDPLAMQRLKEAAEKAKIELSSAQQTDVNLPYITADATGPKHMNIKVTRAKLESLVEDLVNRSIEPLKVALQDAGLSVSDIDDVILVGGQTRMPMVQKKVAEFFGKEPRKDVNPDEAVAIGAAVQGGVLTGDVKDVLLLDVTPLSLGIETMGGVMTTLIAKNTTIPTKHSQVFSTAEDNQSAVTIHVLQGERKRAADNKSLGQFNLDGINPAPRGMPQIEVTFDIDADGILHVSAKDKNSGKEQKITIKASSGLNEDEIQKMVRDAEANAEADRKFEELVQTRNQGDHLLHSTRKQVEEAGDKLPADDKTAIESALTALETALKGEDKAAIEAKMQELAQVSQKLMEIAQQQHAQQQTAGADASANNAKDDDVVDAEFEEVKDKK

B1: Chinese hamster BiP^T229A-V461F (residues 28–549), lid-truncated (domain or fragment)
chain: not shown
notes: also called apo BiP oligomer; ADP BiP oligomer; source: E. coli M15, purified (as in Perera et al., 2019; anion exchange, gel filtration)
binding result [1]: binds

koff [2]: 0.00575 s⁻¹ and 0.00678 s⁻¹ and 0.00573 s⁻¹
koff ([2]; mean): 0.00609 s⁻¹
koff [3]: 0.00239 s⁻¹ and 0.00247 s⁻¹ and 0.00254 s⁻¹
koff ([3]; mean): 0.00247 s⁻¹
koff [4]: 0.00546 s⁻¹ and 0.00506 s⁻¹ and 0.00591 s⁻¹
koff ([4]; mean): 0.00547 s⁻¹
koff [5]: 0.00636 s⁻¹ and 0.00686 s⁻¹ and 0.00525 s⁻¹ and 0.00615 s⁻¹
koff [6]: 0.00203 s⁻¹ and 0.000861 s⁻¹ and 0.000902 s⁻¹
koff ([6]; mean): 0.00127 s⁻¹
koff [7]: 0.00434 s⁻¹ (2×) and 0.00424 s⁻¹
koff ([7]; mean): 0.00431 s⁻¹
koff [8]: 0.00682 s⁻¹ and 0.00595 s⁻¹ and 0.00602 s⁻¹
koff ([8]; mean): 0.00626 s⁻¹
koff [9]: 0.00421 s⁻¹ and 0.00438 s⁻¹ and 0.00441 s⁻¹
koff ([9]; mean): 0.00433 s⁻¹
koff [10]: 0.00684 s⁻¹ and 0.00682 s⁻¹ and 0.00672 s⁻¹
koff ([10]; mean): 0.00679 s⁻¹
koff [11]: 0.00583 s⁻¹ and 0.00632 s⁻¹ and 0.00607 s⁻¹
koff ([11]; mean): 0.00607 s⁻¹
koff [12]: 0.00384 s⁻¹ and 0.00414 s⁻¹ and 0.00359 s⁻¹ and 0.0038 s⁻¹
koff [13]: 0.00171 s⁻¹ and 0.00178 s⁻¹ and 0.00164 s⁻¹
koff [14]: 0.0025 s⁻¹ and 0.00254 s⁻¹ and 0.00241 s⁻¹ and 0.00255 s⁻¹
koff [15]: 0.00336 s⁻¹ and 0.00333 s⁻¹ and 0.00344 s⁻¹ and 0.00318 s⁻¹
koff [16]: 0.00121 s⁻¹ and 0.0012 s⁻¹ and 0.00122 s⁻¹
koff ([16]; mean): 0.00121 s⁻¹
koff [17]: 0.00145 s⁻¹ (2×) and 0.00148 s⁻¹
koff ([17]; mean): 0.00146 s⁻¹
koff [18]: 0.00811 s⁻¹ and 0.00832 s⁻¹ and 0.00795 s⁻¹ and 0.00806 s⁻¹
koff [19]: 0.00203 s⁻¹ and 0.00225 s⁻¹ and 0.00198 s⁻¹ and 0.00185 s⁻¹
koff [20]: 0.00441 s⁻¹ and 0.00438 s⁻¹ and 0.00434 s⁻¹ and 0.00453 s⁻¹
koff [21]: 0.00395 s⁻¹ and 0.00411 s⁻¹ and 0.00394 s⁻¹ and 0.0038 s⁻¹
koff [22]: 0.00693 s⁻¹ and 0.00776 s⁻¹ and 0.00549 s⁻¹ and 0.00673 s⁻¹
koff [23]: 0.00294 s⁻¹ and 0.00337 s⁻¹ and 0.00333 s⁻¹
koff ([23]; mean): 0.00321 s⁻¹
koff [24]: 0.0103 s⁻¹ and 0.00955 s⁻¹ and 0.00937 s⁻¹
koff ([24]; mean): 0.00974 s⁻¹
koff [25]: 0.0074 s⁻¹ and 0.00639 s⁻¹ and 0.00848 s⁻¹
koff ([25]; mean): 0.00742 s⁻¹
koff [26]: 0.00101 s⁻¹ and 0.000958 s⁻¹ and 0.00117 s⁻¹
koff ([26]; mean): 0.00105 s⁻¹
koff [27]: 0.0025 s⁻¹ and 0.0024 s⁻¹ and 0.00243 s⁻¹
koff ([27]; mean): 0.00244 s⁻¹
B2: P15 BiP substrate peptide (peptide)
peptide: ALLLSAPRRGAGKK(Biotin)
notes: substrate peptide P15 (Misselwitz et al., 1998); Held on streptavidin BLI sensors together with a biotinylated J-domain (ERdj6 residues 390-455, wild type or H422Q; for DnaK the J-domain of DnaJ, residues 1-72); source: synthetic peptide (custom synthesis, GenScript)
